To fix the notation:
B1: SMG5 (parent)
chain: TNPDLIIVCAQSSQSLWNRLSVLL
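Note: lentivirally expressed fusions sorted by FACS into six bins by GFP to DsRed ratio, PSI derived from sequencing read proportions per bin multiplied by bin number.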

In the data set the parent is B1. The experiment in a line: protein stability index of a GFP-peptide fusion (GPS, HEK-293T) (PSI 1-6); higher = more stable. The note with it: c terminus: a fixed tail appended.
As for NNPDLIIVCAQSSQSLWNRLSVLL, the protein stability index was 3.25.

For the variant ANPDLIIVCAQSSQSLWNRLSVLL, the protein stability index was 1.38.

Take YNPDLIIVCAQSSQSLWNRLSVLL: the protein stability index stood at 1.66.

Consider KNPDLIIVCAQSSQSLWNRLSVLL, for which the protein stability index is 4.48.

Turning to FNPDLIIVCAQSSQSLWNRLSVLL, the protein stability index is 2.28.

RNPDLIIVCAQSSQSLWNRLSVLL: the protein stability index is 1.37.

As for TNDDLIIVCAQSSQSLWNRLSVLL, the protein stability index turned out to be 1.77.

On to TNFDLIIVCAQSSQSLWNRLSVLL, for which the protein stability index stood at 2.18.

As to TNIDLIIVCAQSSQSLWNRLSVLL, the protein stability index amounted to 4.44.

As to TNNDLIIVCAQSSQSLWNRLSVLL, the protein stability index was found to be 2.52.

For TNKDLIIVCAQSSQSLWNRLSVLL, the protein stability index came to 2.48.

For the variant TNVDLIIVCAQSSQSLWNRLSVLL, the protein stability index is 4.46.

Turning to TNLDLIIVCAQSSQSLWNRLSVLL, the protein stability index stood at 2.29.

Take TNGDLIIVCAQSSQSLWNRLSVLL: the protein stability index is 3.64.

In the case of TNQDLIIVCAQSSQSLWNRLSVLL, the protein stability index was 1.71.

As to TNRDLIIVCAQSSQSLWNRLSVLL, the protein stability index was 3.61.

As to TNSDLIIVCAQSSQSLWNRLSVLL, the protein stability index amounted to 2.5.

Turning to TNMDLIIVCAQSSQSLWNRLSVLL, the protein stability index was found to be 2.64.

As to TNWDLIIVCAQSSQSLWNRLSVLL, the protein stability index came to 3.4.

Turning to TNEDLIIVCAQSSQSLWNRLSVLL, the protein stability index is 2.57.

As for TNADLIIVCAQSSQSLWNRLSVLL, the protein stability index was 3.05.

Turning to TNTDLIIVCAQSSQSLWNRLSVLL, the protein stability index turned out to be 2.8.

TNPDLIIVCCQSSQSLWNRLSVLL: the protein stability index is 2.61.

TCPDLIIVCAQSSQSLWNRLSVLL: the protein stability index was found to be 2.8.

Turning to TRPDLIIVCAQSSQSLWNRLSVLL, the protein stability index worked out at 2.88.

Take TLPDLIIVCAQSSQSLWNRLSVLL: the protein stability index turned out to be 2.99.

TGPDLIIVCAQSSQSLWNRLSVLL: the protein stability index was 2.66.

In the case of TTPDLIIVCAQSSQSLWNRLSVLL, the protein stability index stood at 4.22.

As to TKPDLIIVCAQSSQSLWNRLSVLL, the protein stability index amounted to 2.66.

As to TIPDLIIVCAQSSQSLWNRLSVLL, the protein stability index came out at 2.22.

With THPDLIIVCAQSSQSLWNRLSVLL, the protein stability index was found to be 1.88.

Consider TVPDLIIVCAQSSQSLWNRLSVLL, for which the protein stability index worked out at 2.06.

Consider TWPDLIIVCAQSSQSLWNRLSVLL, for which the protein stability index is 3.06.

Regarding TEPDLIIVCAQSSQSLWNRLSVLL, the protein stability index is 2.26.

As for TYPDLIIVCAQSSQSLWNRLSVLL, the protein stability index is 1.77.

TDPDLIIVCAQSSQSLWNRLSVLL: the protein stability index amounted to 3.01.

TPPDLIIVCAQSSQSLWNRLSVLL: the protein stability index was found to be 3.06.

As to TMPDLIIVCAQSSQSLWNRLSVLL, the protein stability index was found to be 2.18.

For the variant TNPDAIIVCAQSSQSLWNRLSVLL, the protein stability index amounted to 2.09.

Turning to TNPDHIIVCAQSSQSLWNRLSVLL, the protein stability index worked out at 1.29.

As for TNPDYIIVCAQSSQSLWNRLSVLL, the protein stability index came out at 1.47.

Consider TNPDFIIVCAQSSQSLWNRLSVLL, for which the protein stability index was determined as 3.72.

TNPDMIIVCAQSSQSLWNRLSVLL: the protein stability index was found to be 2.01.

Consider TNPDRIIVCAQSSQSLWNRLSVLL, for which the protein stability index came out at 1.39.

With TNPDTIIVCAQSSQSLWNRLSVLL, the protein stability index worked out at 2.4.

With TNPDDIIVCAQSSQSLWNRLSVLL, the protein stability index is 1.76.

With TNPDNIIVCAQSSQSLWNRLSVLL, the protein stability index came to 1.63.

As to TNPDGIIVCAQSSQSLWNRLSVLL, the protein stability index amounted to 1.54.

Regarding TNPDIIIVCAQSSQSLWNRLSVLL, the protein stability index was 2.06.

For the variant TNPDCIIVCAQSSQSLWNRLSVLL, the protein stability index worked out at 3.93.

In the case of TNPDSIIVCAQSSQSLWNRLSVLL, the protein stability index came to 2.17.

Consider TNPDVIIVCAQSSQSLWNRLSVLL, for which the protein stability index came out at 2.51.

Turning to TNPDWIIVCAQSSQSLWNRLSVLL, the protein stability index is 1.4.

In the case of TNPDKIIVCAQSSQSLWNRLSVLL, the protein stability index is 2.82.

Take TNPDPIIVCAQSSQSLWNRLSVLL: the protein stability index amounted to 2.94.

In the case of TNPDEIIVCAQSSQSLWNRLSVLL, the protein stability index was 2.95.

Turning to TNPDQIIVCAQSSQSLWNRLSVLL, the protein stability index was found to be 1.73.

As to TNPDLRIVCAQSSQSLWNRLSVLL, the protein stability index was determined as 2.2.

TNPDLKIVCAQSSQSLWNRLSVLL: the protein stability index was determined as 2.36.

Take TNPDLPIVCAQSSQSLWNRLSVLL: the protein stability index stood at 2.57.

For TNPDLGIVCAQSSQSLWNRLSVLL, the protein stability index stood at 2.65.

For TNPDLNIVCAQSSQSLWNRLSVLL, the protein stability index stood at 2.4.

For TNPDLEIVCAQSSQSLWNRLSVLL, the protein stability index is 2.34.

Consider TNPDLMIVCAQSSQSLWNRLSVLL, for which the protein stability index came out at 1.93.

TNPDLSIVCAQSSQSLWNRLSVLL: the protein stability index stood at 2.87.

As for TNPDLWIVCAQSSQSLWNRLSVLL, the protein stability index is 2.5.

For TNPDLCIVCAQSSQSLWNRLSVLL, the protein stability index stood at 1.26.

In the case of TNPDLYIVCAQSSQSLWNRLSVLL, the protein stability index is 2.83.

As for TNPDLFIVCAQSSQSLWNRLSVLL, the protein stability index came out at 2.5.

For TNPDLLIVCAQSSQSLWNRLSVLL, the protein stability index is 2.64.

On to TNPDLQIVCAQSSQSLWNRLSVLL, for which the protein stability index amounted to 3.05.

With TNPDLAIVCAQSSQSLWNRLSVLL, the protein stability index came out at 2.1.

As to TNPDLHIVCAQSSQSLWNRLSVLL, the protein stability index is 1.66.

As to TNPDLVIVCAQSSQSLWNRLSVLL, the protein stability index was 4.02.

In the case of TNPDLTIVCAQSSQSLWNRLSVLL, the protein stability index turned out to be 1.79.

Regarding TNPDLDIVCAQSSQSLWNRLSVLL, the protein stability index was determined as 1.8.

As for TNPDLIIQCAQSSQSLWNRLSVLL, the protein stability index was found to be 1.85.

As for TNPDLIIYCAQSSQSLWNRLSVLL, the protein stability index is 2.59.

For the variant TNPDLIIWCAQSSQSLWNRLSVLL, the protein stability index came out at 2.69.

Regarding TNPDLIIMCAQSSQSLWNRLSVLL, the protein stability index is 1.46.

In the case of TNPDLIINCAQSSQSLWNRLSVLL, the protein stability index worked out at 1.88.

On to TNPDLIIACAQSSQSLWNRLSVLL, for which the protein stability index worked out at 1.43.

As for TNPDLIIECAQSSQSLWNRLSVLL, the protein stability index turned out to be 1.56.

Consider TNPDLIIPCAQSSQSLWNRLSVLL, for which the protein stability index is 1.31.

TNPDLIIGCAQSSQSLWNRLSVLL: the protein stability index came out at 2.27.

As for TNPDLIICCAQSSQSLWNRLSVLL, the protein stability index is 1.36.

As to TNPDLIIICAQSSQSLWNRLSVLL, the protein stability index worked out at 2.93.

Turning to TNPDLIIHCAQSSQSLWNRLSVLL, the protein stability index turned out to be 1.91.

In the case of TNPDLIIDCAQSSQSLWNRLSVLL, the protein stability index amounted to 2.09.

With TNPDLIILCAQSSQSLWNRLSVLL, the protein stability index was 3.74.

As for TNPDLIIKCAQSSQSLWNRLSVLL, the protein stability index stood at 1.47.

Take TNPDLIISCAQSSQSLWNRLSVLL: the protein stability index is 1.7.

As to TNPDLIIRCAQSSQSLWNRLSVLL, the protein stability index stood at 2.22.

TNPDLIITCAQSSQSLWNRLSVLL: the protein stability index came out at 1.72.

Source of the values: the supplement of paper PMC10567573.
